This passage reports Tm results from the FLAb antibody collection.

One data set can be described thus: melting temperature. The following applies: Circular dichroism.
In the case of “QVQLVESGGGLVQPGGSLRLSCAASGDTYGSYWMGWFRQAPGQGLEAVAAINRGGGYTVYADSVKGRFTISRDNSKNTLYLQMNSLRAEDTAVYYCAASGVLGGLHEDWFNYWGQGTLVTVSSHHHHHH”, the Tm is 74 °C.
For “DVQLQESGGGLVQPGGSLRLSCAASGFLFSDTYMTWARQAPGKGLEWLGGISKDGSGTLYEDSVEGRFTISRDNAKNTLYLQMNSLKSEDTALYYCSTGALLPTRPQGQGTQVTVSS”, the Tm worked out at 51.5 °C.
For “QVQLVESGGGLVQPGGSLRLSCAASGYTYISGWFRQAPGQGLEAVAAIRSSDGTTYYADSVKGRFTISRDNSKNTLYLQMNSLRAEDTAVYYCAATEVAGWPLDIGIYDYWGQGTLVTVSS”, the Tm was 63.4 °C.
In the case of “AWVDQTPRTATKETGESLTINCVLTGTSCSLYSTSWFRKNPGTTDWERISIGGRYVESVNKGAKSFSLRIKDLTVADSATYYCKAQTADTWITVVIDGYDWYDGAGTALTVK”, the Tm was found to be 59 °C.
On the same count and under the same terms, under “TRVDQTPRTATKETGESLTIICVLTDTSCVLHSTSWFRKNPGTTDWERMSIGGRYVESVNKGAKSFSLRIKDLTVADSATYYCKAQSHEYMEVCPYDWYDGAGTVLTVK” stands 55 °C.

The same data set, now with this note: DSF (SYPRO).
With “QVQLQESGGGLVQPGGSLRLSCAASGFTISTTAMSWVRQAPGKGIEWVSTIFASGETTSYADFVQGRFITSRDNTKNTLYLQLNNLKTEDTAMYFCAAADDFGGLNNRYRGQGTQVTVSS”, the Tm amounted to 60.7 °C.
As to “QVQLQESGGGSVQAGGSLRLSCAVSGYTYSRNCIGWFRQAPGKEREGVAALYTGGGSTYYAASVKGRFTISQDTKNTVYLQMNSLKPEDSAMYYCAANPFGLYTCGDLRGPDFGYWGQGTQVTVSS”, the Tm came out at 71 °C.
Still for that read-out and setting: in the case of “QVKLEESGGGLVQAGGSLRLSCAASERTFSRYPVAWFRQAPGAEREFVAVISSTGRSTYYADSVKGRFTISRDNAKVTVYLQMNNLKREDTAVYFCAVNSKRRRLQDPNEYDYWGQGTQVTVSSGSEQKLISEEDLNHHHHHH” it was 81.6 °C; in that of “QVQLQESGGGSVQAGGSLKLSCDASTYTYGGKCMGWFRQAPGKEREFVAFIESDGRTSYADSVKGRFTISQDDAKNTVYLQMNSLKPEDTSMYYCKTAAGAFCGTRSYGFWGQGTQVTVSS”, 57.2 °C; in that of “QVKLEESGGGLVQAGGSLRLSCAASERTFSRYPVAWFRQAPGAEREFVAVISSTGTSTYYADSVKGRFTISRDNAKVTVYLQMNNLKREDTAVYFCAVNSQRTRLQYPNEYDYWGQGTQVTVSSGSEQKLISEEDLNHHHHHH”, 73.4 °C.
Turning to “QVKLEESGGGLVQAGGSLRLSCAASERTFSRYPVAWFRQAPGAEREFVAVISSTGTSKYYADSVKGRFTISRDNAKVTVYLQMNNLKREDTAVYFCAVNSQRTRLQDPNEYDYWGQGTQVTVSSGSEQKLISEEDLNHHHHHH”, the Tm was found to be 76.9 °C.
For “QVQLQESGGGSVQAGGSLRLPCVASGYIYSPTKMGWFRQAPGKERELVSSITRDGRPYYSDSVKGRFTISQDNAKNTVYLQMNSLKPEDTAMYYCFADVRLSAVGGIKTYWDQGTQVTVSS”, the Tm is 58.6 °C.
Take “QVQLQESGGGSVQAGGSLRLSCAASGWTYSTATMGWYRQAPGKERELVSSIFSDENTYYKDSVKGRFTISRDAAKNTVYLQMNSLKPEDTAMYYCYIRPTTSLANWRWGQGTQVTVSS”: the Tm worked out at 59.7 °C.
The same measure, in the same setting: under “QVKLEESGGGLVQAGGSLRLSCAASERTFSRYPVAWFRQAPGAEREFVAVISSTGRSTYYADSVKGRFTISRDNAKVTVYLQMNNLKREDTAVYFCAVNSKRTRLQDPNEYDYWGQGTQVTVSSGSEQKLISEEDLNHHHHHH” stands 81.4 °C; under “QVKLEESGGGLVQAGGSLRLSCAASERTFSRYPVAWFRQAPGAEREFVAVISSTGTSTYYADSVKGRFTISRDNAKVTVYLQMNNLKREDTAVYFCAVNSQRMRLQDPNEYDYWGQGTQVTVSSGSEQKLISEEDLNHHHHHH”, 77.4 °C; under “QVKLEESGGGLVQAGGSLRLSCAASERTFSRYPVAWFRQAPGAEREFVAVISSTGTSTYYADSVKGRFTISRDNAKVTVYLQMNNLKREDTAVYFCAVNSKRRRLQDPNEYDYWGQGTQVTVSSGSEQKLISEEDLNHHHHHH”, 81.9 °C.
For the sequence “QVQLQESGGGSVQAGGSLKLSCAASGYIFSSCAMSWYRQAPGKERELVSSITSYGDAAYTDSAKGRFTISRDNAKNTLYLHLNNLKPEDTAVYFCAACPRNKYWGQGTQVTVSS”, the Tm stood at 68.4 °C.
With “EVQLQASGGGLVQPGGSLRLSCTASGSIFSINAMGWYRQTPRKERELVAAISEGGSTKYGDSVKGRFTISRDFAKNTQMVYLQMNSLKAEDTAVYYCKAQTEGPIADWGTSQYEYWGQGTQVTVSS”, the Tm came to 51 °C.
On to “DVQLVESGGGSVQAGGSLRLSCAASGYIASINYLGWFRQAPGKEREGVAAVSPAGGTPYYADSVKGRFTVSLDNAENTVYLQMNSLKPEDTALYYCAAARQGWYIPLNSYGYNYWGQGTQVTVSS”, for which the Tm stood at 74 °C.
As to “QVQLVESGGGLVQAGGSLRLSCAVSGLGAHRVGWFRRAPGKEREFVAAIGANGGNTNYLDSVKGRFTISRDNAKNTIYLQMNSLKPQDTAVYYCAARDIETAEYTYWGQGTQVTVSS”, the Tm turned out to be 72.8 °C.
“QVKLEESGGGLVQAGGSLRLSCAASERTFSRYPVAWFRQAPGAEREFVAVISSTGTSTYYADSVKGRFTISRDNAKVTVYLQMNNLKREDTAVYFCAVNSQRTWLQDPNEYDYWGQGTQVTVSSGSEQKLISEEDLNHHHHHH”: the Tm is 77.3 °C.
With “QVKLEESGGGLVQAGGSLRLSCAASERTFSRYPVAWFRQAPGAEREFVAVISSTGTSTYYADSVKGRFTISRDNAKVTVYLQMNNLKREDTAVYFCAVNSQRTRLQDPREYDYWGQGTQVTVSSGSEQKLISEEDLNHHHHHH”, the Tm stood at 77.6 °C.
Regarding “QVKLEESGGGLVQAGGSLRLSCAASERTFSRYPVAWFRQAPGAEREFVAVISSTGTSTYYADSVKGRFTISRDNAKVTVYLQMNNLKREDTAVYFCAVNSQRWRLQDPNEYDYWGQGTQVTVSSGSEQKLISEEDLNHHHHHH”, the Tm stood at 77.5 °C.

Staying with this data set, now noted: nanoDSF.
Take “QVQLQESGGGSVQAGGSLKLSCDASTYTYGGKCMGWFRQAPGKEREFVAFIESDGRTSYADSVKGRFTISQDDAKNTVYLQMNSLKPEDTSMYYCKTAAGAFCGTRSYGFWGQGTQVTVSS”: the Tm came to 60.8 °C.
As to “QVQLQESGGGSVQAGGSLRLPCVASGYIYSPTKMGWFRQAPGKERELVSSITRDGRPYYSDSVKGRFTISQDNAKNTVYLQMNSLKPEDTAMYYCFADVRLSAVGGIKTYWDQGTQVTVSS”, the Tm came to 63.3 °C.
Consider “QVQLQESGGGSVQAGGSLRLSCAASGWTYSTATMGWYRQAPGKERELVSSIFSDENTYYKDSVKGRFTISRDAAKNTVYLQMNSLKPEDTAMYYCYIRPTTSLANWRWGQGTQVTVSS”, for which the Tm stood at 63.9 °C.
For “QVQLQESGGGSVQAGGSLKLSCAASGYIFSSCAMSWYRQAPGKERELVSSITSYGDAAYTDSAKGRFTISRDNAKNTLYLHLNNLKPEDTAVYFCAACPRNKYWGQGTQVTVSS”, the Tm is 63.6 °C.
With “TGGGLVQPGGSLRLSCAASGSISSINAMGWYRQAPGKQRELVAAITIRGNTVYGDSVKGRFTVSRDNAKNTVYLQMNSLKPEDTAVYYCNAKSTPSLYAAGYGVDYWGEGTLV”, the Tm came to 69.8 °C.
As for “TGGALVQAGGSLRLSCAASETSSVSLSWMGWYRQAPGKERELVAGINRDRPKYKESVKGRFTISRDNAQNTVYLQMNSLKPEDTAVYYCNTVPPRGDYWGQGTQV”, the Tm was found to be 65.7 °C.
